Assay results as given in patent US20250197882A1, “USE OF JAZ PROTEIN AND ITS DERIVATIVES IN AGRICULTURAL PEST PREVENTION AND CONTROL” (priority 2022, published 2025).

Tests used:
[1] = system: Sf9 ovarian cell line of Spodoptera frugiperda; type: cell-based
Description: Using insect cell lines toxicity testing and mechanism of action research of insecticides, as a new detection method, has the advantages of good target homogeneity, easy control of experimental conditions, and low screening costs compared to traditional bioassay methods. It is suitable for toxicological research of insecticidally active substances. In recent years, scholars at home and abroad have conducted extensive research on the activity of plant natural active ingredients on insect cells, and have achieved many research results of the action mechanism of plant natural active ingredients on insect cells, showing a good correlation between experimental results and in vivo toxicity testing and field experiments.
Fluorescence staining experiment: toxic effect of GhJAZ protein on Sf9 cell line (CL-0205, Procell) was detected using a Calcein/PI Cell Viability and Cytotoxicity Detection kit (Catalogue No.: C2015L, Beyotime, China). The Calcein/PI Cell Activity and Cytotoxicity Detection Kit is a very convenient kit for detecting the viability of animal cells based on Calcein AM (Calcein AM) and PI (Propidium Iodide) dual fluorescence staining. The specific steps are as follows: Adherent cells were blown and transferred to a 15 mL EP tube, centrifuged at 860-870 rpm for 5 minutes. […] After 30 minutes of culture, fluorescence microscopy images were taken. […]

[2] = system: cotton bollworm (Helicoverpa armigera); experiment: Feed film-covering bioassay, larval growth inhibition, cotton bollworm; type: in vivo; conditions: protein on artificial feed, after 7 days, FIGS. 6D, 6F
Protocol: (§1) Treatment group: add the prepared insect feed (Henan Jiyuan Baiyun Industrial Co., Ltd., product name: Grassland armyworm artificial feed) to a 24 well plate, with a volume of 200 microliters per well; use a film covering method to add diluted GhJAZ8 protein solutions of different concentrations (diluted with PBS) to the surface of the feed, and shake in the incubator until the protein is immersed in the culture medium. Take grassland armyworm and cotton bollworm larvae that have not been fed within the first 12 hours of incubation as experimental subjects, and place them in a culture box, with each concentration of protein applied to 100 larvae. Set 16 replicates for each protein concentration and 3 parallel measurement groups for each dose. Control group: different from the experimental group, PBS solution was added to the surface of the feed using a film covering method, and the rest were the same. After 7 days, age and weight will be recorded for statistical analysis. [formula]

[3] = system: fall armyworm (Spodoptera frugiperda); experiment: Feed film-covering bioassay, larval growth inhibition, fall armyworm; type: in vivo; conditions: protein on artificial feed, after 7 days, FIGS. 6C, 6E
Protocol: as §1

SfAPN4 = experiment: Yeast two-hybrid (Y2H) interaction with SfAPN4; type: binding, Spodoptera frugiperda; conditions: Y2HGold yeast, quadruple dropout medium, FIG. 4B
Description: DNA fragments shown in PGADT7::GhJAZ8 (SEQ ID No. 3), PGADT7::GhJAZ8^LGK (SEQ ID No. 25), PGADT7::GhJAZ13 (SEQ ID No. 8), PGADT7::GhJAZ14 (SEQ ID No. 10), PGADT7::GhJAZ24 (SEQ ID No. 12), PGADT7::GhJAZ27 (SEQ ID No. 14) and PGADT7::GhJAZ28 (SEQ ID No. 16) were inserted between the BamH1 and EcoR1 of a PGADT7 plasmid (Unibio Biotech, VT1639), respectively, to obtain pGADT7+GhJAZ8, pGADT7+GhJAZ8^LGK, pGADT7+GhJAZ13, pGADT7+GhJAZ14, pGADT7+GhJAZ24, pGADT7+GhJAZ27 and pGADT7+GhJAZ28.
The DNA fragment shown in PGBKT7: SfAPN4 (SEQ ID NO: 22) was inserted between BamH1 and EcoR1 of a pGBKT7 plasmid (Unibio Biotech, catalog number: VT1638), to obtain a vector plasmid, named pGBKT7+SfAPN4.
The mixture was centrifuged at 5000 rpm for 30 seconds to discard the supernatant, and the pellet was resuspended in ddH2O, coated on a double dropout medium (SD/-Leu/-Trp) and cultured at 28° C. for 2 days. After occurrence of the clonal plaques, the clones were selected and placed a quadruple dropout medium (SD Ade/-His/-Leu/-Trp, with Aba and X-α-gal added) and the interaction was observed after 4 days of culture at 28° C.

SfAPN4, sequence (as listed by the source): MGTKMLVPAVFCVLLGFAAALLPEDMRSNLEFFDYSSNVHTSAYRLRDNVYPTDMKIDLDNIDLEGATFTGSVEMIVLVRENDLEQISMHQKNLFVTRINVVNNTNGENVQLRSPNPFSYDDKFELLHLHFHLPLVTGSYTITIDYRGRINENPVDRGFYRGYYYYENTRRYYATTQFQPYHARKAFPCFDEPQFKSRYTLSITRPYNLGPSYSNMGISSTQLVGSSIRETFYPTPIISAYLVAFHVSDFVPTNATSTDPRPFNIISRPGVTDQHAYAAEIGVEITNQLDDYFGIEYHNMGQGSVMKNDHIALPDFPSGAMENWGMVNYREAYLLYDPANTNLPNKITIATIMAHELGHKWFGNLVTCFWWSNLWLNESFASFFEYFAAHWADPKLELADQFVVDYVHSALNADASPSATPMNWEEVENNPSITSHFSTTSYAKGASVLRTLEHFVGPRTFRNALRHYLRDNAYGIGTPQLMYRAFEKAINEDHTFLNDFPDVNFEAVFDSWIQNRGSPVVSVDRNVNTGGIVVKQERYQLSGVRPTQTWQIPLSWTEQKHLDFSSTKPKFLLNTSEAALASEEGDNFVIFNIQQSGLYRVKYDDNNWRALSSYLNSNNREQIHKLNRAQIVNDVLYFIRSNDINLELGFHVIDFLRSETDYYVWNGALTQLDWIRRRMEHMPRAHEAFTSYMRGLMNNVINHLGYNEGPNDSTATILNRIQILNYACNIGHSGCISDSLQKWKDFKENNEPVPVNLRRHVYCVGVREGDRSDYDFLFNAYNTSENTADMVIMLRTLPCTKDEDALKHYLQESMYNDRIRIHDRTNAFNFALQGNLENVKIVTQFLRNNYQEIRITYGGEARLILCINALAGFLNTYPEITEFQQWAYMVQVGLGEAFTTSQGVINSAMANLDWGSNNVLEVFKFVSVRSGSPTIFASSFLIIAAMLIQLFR

Molecule | cytotoxicity on Sf9 cells [1] | growth inhibition of cotton bollworm larvae [2] | growth inhibition of fall armyworm larvae [3] | interaction with SfAPN4 (Y2H) (SfAPN4)
GhJAZ5: cotton JAZ protein, SEQ ID NO: 1, expressed in E. coli from pET-30a-GhJAZ5 (protein) MSSCSESTAMKPARSPEKPSFAQTCNLLSQYLKEKGSFGDLSLGMTCNVEANGTPVVPPPTMNLFPLNDKSDDVCGRNGGNPKNLTSMDLFPQQAGLASKDDSPNKLEPQTAPMTIFYGGQVIVFNDFPANKAKEIMLLASNSSSQSNNSFNPIPFTSSIARSPIESSIGVPPTSKPVHPAQRAVPGDLPIARRASLHRFLEKRKDRITAKAPYQINNSAAAPSLSGDNKSWLGLAAQSP | certain cytotoxic effects |  |  | 
GhJAZ8^LGK: GhJAZ8 with NGR domain mutated, N43G44R45 to L43G44K45, coding sequence SEQ ID No. 25 (protein) MRRNCNLELRLLPSSYPSDSHDMMEERIESPKTQQQQLTIFYLGKVCVSDVTELQAKAILMLANRERDERMKSPTGWEPVSPTLKSQVKCPNTALSMKRSLQRFLQKRKTRIQATSPYH |  | weakened | weakened | loses interaction
GhJAZ16: cotton JAZ protein, SEQ ID NO: 5, expressed from pET-30a-GhJAZ16 (protein) MERDFIGLRSKNAAITIKVEPSNAQPDDSVLLRGSGMQLSFSNKVSTVPQFLSFDGARDDKPRKATHDTLLSSGFMTIPAADSNKKPHPGLTQKQGGNHYAATTYGLQQLDGHQSRLSHEARIFPSSSQPNHTITVSMNTPLLQPHLASPGQNIIGHTINPQPFTGVPIMAAPVSVVPPSSPIIGTTDLRNAAKSSRAPAQLTIFYAGSVCVYDDVSPDKAQAIMLLAGNVSSTTQSKTAPVTQPQTHIPRPCTLSPFSGLPNHLSVTSHVSLQPVAGSSGTNELTAATRIGALASTNNQPDPPKLVNPAVAVPQARKASLARFLEKRKERVSNTSPYNICKRSESGPLASDGISFSVTSAGSSPLQAIN | certain cytotoxic effects |  |  | 
